T1: human LAG-3 domain 1-2 Fc fusion, point mutation #78 R154A (human, UniProt P18627 23-266)
T1 construct: not shown: human IgG1 Fc, AA P101-K330
T1 sequence: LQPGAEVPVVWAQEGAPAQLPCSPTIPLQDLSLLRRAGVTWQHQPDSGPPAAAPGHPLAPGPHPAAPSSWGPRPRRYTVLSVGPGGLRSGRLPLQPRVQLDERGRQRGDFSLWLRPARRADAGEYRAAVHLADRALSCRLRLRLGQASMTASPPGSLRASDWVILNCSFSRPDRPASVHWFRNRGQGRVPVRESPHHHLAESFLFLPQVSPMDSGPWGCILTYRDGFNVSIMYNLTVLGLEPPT

T2: human LAG-3 domain 1-2 Fc fusion, point mutation #15 Q64A (human, UniProt P18627 23-266)
T2 construct: not shown: human IgG1 Fc, AA P101-K330
T2 sequence: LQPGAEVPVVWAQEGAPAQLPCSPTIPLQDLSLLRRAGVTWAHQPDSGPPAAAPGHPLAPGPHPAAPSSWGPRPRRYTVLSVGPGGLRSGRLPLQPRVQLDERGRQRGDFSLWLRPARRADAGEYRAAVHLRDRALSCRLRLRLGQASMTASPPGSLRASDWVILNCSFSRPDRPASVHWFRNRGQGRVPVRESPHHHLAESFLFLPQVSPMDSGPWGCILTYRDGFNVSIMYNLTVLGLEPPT

T3: human LAG-3 domain 1-2 Fc fusion, point mutation #68 Q128A (human, UniProt P18627 23-266)
T3 construct: not shown: human IgG1 Fc, AA P101-K330
T3 sequence: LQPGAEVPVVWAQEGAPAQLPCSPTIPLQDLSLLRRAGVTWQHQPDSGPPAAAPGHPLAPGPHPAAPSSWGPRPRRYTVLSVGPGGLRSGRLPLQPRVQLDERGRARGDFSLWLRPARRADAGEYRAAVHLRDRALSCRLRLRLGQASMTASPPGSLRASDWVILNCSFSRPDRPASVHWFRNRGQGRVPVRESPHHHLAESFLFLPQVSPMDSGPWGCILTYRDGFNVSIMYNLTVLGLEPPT

T4: human LAG-3 domain 1-2 Fc fusion, point mutation #24 G77A (human, UniProt P18627 23-266)
T4 construct: not shown: human IgG1 Fc, AA P101-K330
T4 sequence: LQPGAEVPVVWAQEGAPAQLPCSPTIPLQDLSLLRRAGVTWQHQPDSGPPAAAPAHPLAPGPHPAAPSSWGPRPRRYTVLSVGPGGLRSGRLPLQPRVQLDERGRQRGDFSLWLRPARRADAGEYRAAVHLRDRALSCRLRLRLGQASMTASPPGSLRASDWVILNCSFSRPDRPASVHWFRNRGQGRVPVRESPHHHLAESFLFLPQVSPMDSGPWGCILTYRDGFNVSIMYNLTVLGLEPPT

T5: human LAG-3 domain 1-2 Fc fusion, point mutation #27 L80A (human, UniProt P18627 23-266)
T5 construct: not shown: human IgG1 Fc, AA P101-K330
T5 sequence: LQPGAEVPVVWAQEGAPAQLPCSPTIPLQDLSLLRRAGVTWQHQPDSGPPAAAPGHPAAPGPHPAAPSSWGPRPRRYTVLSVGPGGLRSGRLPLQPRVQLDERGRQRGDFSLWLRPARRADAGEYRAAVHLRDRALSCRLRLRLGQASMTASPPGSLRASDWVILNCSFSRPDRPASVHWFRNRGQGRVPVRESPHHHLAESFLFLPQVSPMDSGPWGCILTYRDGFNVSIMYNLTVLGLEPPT

T6: human LAG-3 domain 1-2 Fc fusion, point mutation #26 P79A (human, UniProt P18627 23-266)
T6 construct: not shown: human IgG1 Fc, AA P101-K330
T6 sequence: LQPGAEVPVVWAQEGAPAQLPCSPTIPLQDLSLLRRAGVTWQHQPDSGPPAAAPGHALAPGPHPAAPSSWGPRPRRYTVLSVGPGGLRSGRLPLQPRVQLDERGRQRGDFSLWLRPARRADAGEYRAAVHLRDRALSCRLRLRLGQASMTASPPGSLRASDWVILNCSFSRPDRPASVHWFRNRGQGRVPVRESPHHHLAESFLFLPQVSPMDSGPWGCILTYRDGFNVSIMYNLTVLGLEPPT

T7: human LAG-3 domain 1-2 Fc fusion, point mutation #1 A40S (human, UniProt P18627 23-266)
T7 construct: not shown: human IgG1 Fc, AA P101-K330
T7 sequence: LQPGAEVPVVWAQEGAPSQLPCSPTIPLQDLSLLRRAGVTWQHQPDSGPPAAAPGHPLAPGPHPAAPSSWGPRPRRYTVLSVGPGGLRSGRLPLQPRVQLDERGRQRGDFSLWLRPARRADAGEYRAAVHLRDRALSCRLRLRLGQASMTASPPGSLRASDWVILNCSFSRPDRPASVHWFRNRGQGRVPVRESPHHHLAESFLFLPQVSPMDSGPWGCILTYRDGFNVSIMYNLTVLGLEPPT

T8: human LAG-3 domain 1-2 Fc fusion, point mutation #18 P67A (human, UniProt P18627 23-266)
T8 construct: not shown: human IgG1 Fc, AA P101-K330
T8 sequence: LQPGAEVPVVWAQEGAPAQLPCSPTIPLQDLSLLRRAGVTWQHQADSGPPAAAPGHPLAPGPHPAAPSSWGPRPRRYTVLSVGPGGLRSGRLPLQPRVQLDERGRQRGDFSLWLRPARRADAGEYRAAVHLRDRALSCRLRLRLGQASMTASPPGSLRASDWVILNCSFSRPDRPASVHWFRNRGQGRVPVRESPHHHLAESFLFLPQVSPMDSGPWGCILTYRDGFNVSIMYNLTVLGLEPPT

T9: human LAG-3 domain 1-2 Fc fusion, point mutation #20 A73S (human, UniProt P18627 23-266)
T9 construct: not shown: human IgG1 Fc, AA P101-K330
T9 sequence: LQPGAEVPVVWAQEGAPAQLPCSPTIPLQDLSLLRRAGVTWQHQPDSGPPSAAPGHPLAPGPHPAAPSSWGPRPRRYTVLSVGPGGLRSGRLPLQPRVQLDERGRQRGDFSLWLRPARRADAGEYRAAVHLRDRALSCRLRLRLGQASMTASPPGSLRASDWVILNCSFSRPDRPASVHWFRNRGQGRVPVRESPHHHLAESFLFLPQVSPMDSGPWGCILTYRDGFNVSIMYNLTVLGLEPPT


Columns and labels:
Test in all cases: SPR, Fab over captured mutant LAG-3-Fc;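 further: fc fusion variants captured on anti-human IgG Fc sensor, Fab injected with association then dissociation phases, KD obtained from Langmuir one-to-one fit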
[1] = molecular target: T1, human LAG-3 domain 1-2 Fc fusion, point …
Protocol: (§1) The LAG-3 fusion proteins were immobilized onto a G-a-hu-IgG Fc SensEye® (Ssens BV, The Netherlands) for 15 minutes using a Continuous Flow Microspotter (CFM, Wasatch Microfluidics, Salt Lake City, US). After spotting, the SensEye® was positioned in an IBIS MX96 biosensor and captured proteins were evaluated for binding affinity. […] Fab association was performed for 15 minutes and antigen dissociation was performed for 15 minutes. The recorded binding responses were fitted to a simple Langmuir 1:1 binding model with Scrubber 2 software for calculation of the on-rate (kon or ka), off-rate (koff or kd) and affinity (KD) constants.

[2] = molecular target: T2, human LAG-3 domain 1-2 Fc fusion, point …
Protocol: as §1

[3] = molecular target: T3, human LAG-3 domain 1-2 Fc fusion, point …
Protocol: as §1

[4] = molecular target: T4, human LAG-3 domain 1-2 Fc fusion, point …
Protocol: as §1

[5] = molecular target: T5, human LAG-3 domain 1-2 Fc fusion, point …
Protocol: as §1

[6] = molecular target: T6, human LAG-3 domain 1-2 Fc fusion, point …
Protocol: as §1

[7] = molecular target: T7, human LAG-3 domain 1-2 Fc fusion, point …
Protocol: as §1

[8] = molecular target: T8, human LAG-3 domain 1-2 Fc fusion, point …
Protocol: as §1

[9] = molecular target: T9, human LAG-3 domain 1-2 Fc fusion, point …
Protocol: as §1

Row | Binder | KD mutant/KD wild type [1] [fold] | KD mutant/KD wild type [2] [fold] | KD mutant/KD wild type [3] [fold] | KD mutant/KD wild type [4] [fold] | KD mutant/KD wild type [5] [fold] | KD mutant/KD wild type [6] [fold] | KD mutant/KD wild type [7] [fold] | KD mutant/KD wild type [8] [fold] | KD mutant/KD wild type [9] [fold] | binding result [2] | binding result [7] | binding result [8]
1 | Fab fragment of antibody 15532 (Fab, V domains shown, not shown: a dimerising Fc or GST, monomeric Fab made by GingisKHAN digestion of the IgG1) VH: QVQLQQWGAGLLRPSETLSLTCAVYGESFSGYYWNWIRQPPGKGLEWIGEINHSGSTNYNPSLKSRVTISVDTSKTQFSLKLSSVTAADTAVYYCARGWDLLDWNDYWNEYWGQGTLVTVSS VL: EIVLTQSPATLSLSPGERATLSCRASQSVSSYLAWYQQKPGQAPRLLIYDASNRATGIPARFSGSGSGTDFTLTISSLEPEDFAVYYCQQRSNWPLTFGGGTKVEIKR | 0.8 | 2.9 | 0.7 | 1 | 0.6 | 0.9 | 4.4 | 3.8 | 0.7 |  |  | 
2 | Fab fragment of antibody 15011 (Fab, V domains shown, not shown: a dimerising Fc or GST, monomeric Fab made by GingisKHAN digestion of the IgG1) VH: EVQLLESGGGLVQPGGSLRLSCAASGFDFRSYAMMWVRQAPGKGLEWVGGINGEVGGSNTYYAPAVKGRATISRDNSKNTLYLQMNSLRAEDTAVYYCVKGAGACGICNDDIDAWGQGTLVTVSS VL: SYELTQDPAVSVALGQTVRITCSGAGSYAGSYYYGWHQQKPGQAPVTVIYDNDKRPSNIPDRFSGSSSGNTASLTITGAQAEDEADYYCGSTNDNDDGGLFGSGTKVTVLG | 1.2 | 0.6 | 1 | 0.8 | 0.8 | 0.6 | 0.6 | 0.6 | 0.7 |  |  | 
3 | Fab fragment of antibody 15431 (Fab, V domains shown, not shown: a dimerising Fc or GST, monomeric Fab made by GingisKHAN digestion of the IgG1) VH: QVQLQQSGPGLVKPSQTLSLTCAISGDSVSSNSAAWNWIRQSPSRGLEWLGRTYYRSKWYNDYAVSVKSRITINPDTSKNQFSLQLNSVTPEDTAVYYCARDDDWNDFDYWGQGTLVTVSS VL: EIVLTQSPATLSLSPGERATLSCRASQSVSSYLAWYQQKPGQAPRLLIYDASNRATGIPARFSGSGSGTDFTLTISSLEPEDFAVYYCQQRSNWPLTFGGGTKVEIKR | 1 |  | 0.8 | 0.7 | 0.5 | 0.4 |  |  | 0.6 | no binding (tested: 300 nM) | no binding (tested: 300 nM) | no binding (tested: 300 nM)
4 | Fab fragment of antibody 15572 (Fab, V domains shown, not shown: a dimerising Fc or GST, monomeric Fab made by GingisKHAN digestion of the IgG1) VH: QLQLQESGPGLVKPSETLSLTCTVSGDSISSSSYYWGWIRQPPGKGLEWIGSIFYSGNTYYNPSLKSRVTISVDTSKNQFSLKLSSVTAADTAVYYCAREDDFLTDYYGAFDIWGQGTMVTVSS VL: not shown | 0.8 |  | 0.9 | 0.7 | 0.6 | 0.4 |  |  | 0.6 | no binding (tested: 300 nM) | no binding (tested: 300 nM) | no binding (tested: 300 nM)

Reference: patent US20220363757A1 (SYMPHOGEN A S, published 2022)
